Where no end group is shown, it is not given here. The star is where a group is joined. Biotin = O=C1N[C@H]2[C@H](CS[C@H]2CCCCC(=O)*)N1; Ahx = NCCCCCC(=O)O
T1: 91-105aa
T1 construct: also called alpha-synuclein peptide 91-105
T1 peptide: {Biotin-Ahx}-ATGFVKKDQLGKNEE

T2: 100-114aa
T2 peptide: {Biotin-Ahx}-LGKNEEGAPQEGILE

T3: 109-123aa
T3 peptide: {Biotin-Ahx}-QEGILEDMPVDPDNE

T4: 82-96aa
T4 construct: also called alpha-synuclein peptide 82-96
T4 peptide: {Biotin-Ahx}-VEGAGSIAAATGFVK


Experiments:
[1] = molecular target: T5, alpha-synuclein fibrils (Homo sapiens (Human), UniProt P37840 1-140); assay: SPR, mAb captured, 1:1 model
Description: (§1) Non-covalent immobilization of alpha-synuclein antibodies was performed using a target immobilization method of 200 response units (RU). […] Binding affinity of alpha-synuclein antibodies to monomeric or fibrillar alpha-synuclein species was performed using a single-cycle kinetics method. […] A dissociation phase of 900 sec followed the final 50 nM injection. Regeneration of the sensor to the goat anti-human antibody layer was achieved using 3 regenerations of 10 mM Glycine pH 1.7. […] Regeneration of the sensor to the goat anti-human antibody layer was achieved using 3 regenerations of 10 mM Glycine pH 1.7. Results obtained from single-cycle kinetics were evaluated by Biacore K8 evaluation software with 1:1 binding homogenous Langmuir model (with a global Rmax) with Cycle 5 as a blank subtraction. The following kinetic parameters were obtained: on-rate (ka), off-rate (kd), affinity constant (KD, ratio of kd by ka), maximum response (Rmax), and goodness of fit (Chi2).
(§2) Kinetic constants were determined from 1:1 homogenous binding models for binding versus the aggregated form, while a steady state fit was used to determine KD values versus the monomeric form of alpha-synuclein.

[2] = molecular target: T6, human full-length alpha-synuclein (human, UniProt P37840 1-140); assay: SPR, mAb captured, steady-state fit
Description: as §1, §2

[3] = molecular target: T6, human full-length alpha-synuclein; assay: SPR, 100 nM monomer, relative to chimeric;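 further: SPR with antibody variants captured via anti-human Fc IgG on an amine-coupled chip, isotype IgG1 reference channel subtracted, dissociation rate fitted by 1:1 or heterogeneous ligand model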
Description: (§3) Flow channels (Fc) 1-8 were activated with a fresh solution of EDC/NHS (Amine Coupling Kit, 1:1 ratio of both reagents, GE Healthcare Life Sciences, BR100050). […] The chip was deactivated by 1 M ethanolamine-HCl (GE Healthcare Life Sciences, BR100050) at a flow rate of 10 μL/min for 420 s.
(§4) A human IgG1 isotype control diluted in running buffer 1×HBS-EP+ (GE Healthcare Life Sciences, BR100669) was captured onto Fc1 via anti-human Fc IgG at a flow rate of 10 μL/min. […] 10 mM glycine pH 1.5 as regeneration buffer was injected following every dissociation phase.
(§5) The data for reference channel Fc1 and buffer channel were subtracted to generate the sensorgrams. The experimental data was fitted by 1:1 binding model or heterogeneous ligand model.

[4] = molecular target: T5, alpha-synuclein fibrils; assay: SPR, 450 nM aggregates, relative to chimeric;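 further: surface plasmon resonance with anti-human Fc capture, human IgG1 isotype control channel and buffer run subtracted, dissociation rates fitted by 1:1 or heterogeneous ligand binding model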
Description: as §3, §4, §5

[5] = molecular target: T1, 91-105aa; assay: 15-mer peptide ELISA;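 further: indirect ELISA of hybridoma supernatant antibodies (1/100, 1 h) binding immobilized 15-mer peptides spanning human alpha-synuclein 1-140 on streptavidin plates, read as optical density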
Description: (§6) Epitope mapping for the antibodies derived from stable hybridoma clones was determined using an indirect ELISA on a library of 15-mer peptides covering the entire sequence of human alpha-synuclein from 1 to 140aa. […] Results are expressed as optical density (O.D.). Each bar represents data for an individual antibody.
(§7) Serum-free supernatants were harvested from stable hybridomas. The supernatants containing antibodies of interest were then screened by an indirect ELISA assay to determine epitopes. Epitopes were first determined using a library of 15-mer peptides covering the entire sequence of human alpha-synuclein protein, spanning amino acids (aa) 1-140 with 9aa offset and 6aa overlap. […] Briefly, streptavidin-coated ELISA plates were blocked overnight at 4° C. […] Plates were washed with PBS/0.05% Tween® 20 and then incubated with the hybridoma supernatants at 1/100 dilution for 1 hour at 25° C. […] After final wash, plates were incubated 2 hours at 25° C. with alkaline phosphatase substrate (p-nitrophenyl phosphate disodium hexahydrate; pNPP, S0942, Sigma) and read the absorbance optical density (O.D.) signal at 405 nm using an ELISA plate reader (Tecan, Switzerland).

[6] = molecular target: T2, 100-114aa; assay: 15-mer peptide ELISA;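 further: indirect ELISA of hybridoma supernatant antibodies (1/100, 1 h) binding immobilized 15-mer peptides spanning human alpha-synuclein 1-140 on streptavidin plates, read as optical density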
Description: as §6, §7

[7] = molecular target: T3, 109-123aa; assay: 15-mer peptide ELISA;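 further: indirect ELISA of hybridoma supernatant antibodies (1/100, 1 h) binding immobilized 15-mer peptides spanning human alpha-synuclein 1-140 on streptavidin plates, read as optical density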
Description: as §6, §7

[8] = molecular target: T4, 82-96aa; assay: 15-mer peptide ELISA;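 further: indirect ELISA of hybridoma supernatant antibodies (1/100, 1 h) binding immobilized 15-mer peptides spanning human alpha-synuclein 1-140 on streptavidin plates, read as optical density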
Description: as §6, §7

Binder	Kd [1]	koff [1]	kon [1]	Kd [2]	Relative koff [3]	Relative koff [4]	binding result [5]	binding result [6]	binding result [7]	binding result [8]
hACI-7067-1101C8-Ab2_H5L1 (antibody, V domains shown, VH on human IgG1 constant, VL on human kappa constant) VH: EVQLVESGGGLVQPGGSLKLSCAASGFSFNIYAMNWVRQAPGKGLEWVGRIRSKSNAYATYYAASVKGRFTISRDDSKNTLYLQMNNLKTEDTAVYYCTRVGLRFYAMDYWGQGTLVTVSS VL: DVVMTQSPLSLPVTLGQPASISCRSSQSIVHSNANTYLEWYQQRPGQSPRLLIYKVSNRFSGVPDRFSGSGSGTDFTLKISRVEAEDLGVYYCFQGSQGPLTFGQGTKLEIK	0.001 µM	2.18e-05 s⁻¹	22000 M⁻¹ s⁻¹	0.0201 µM	1.1	1.5				
hACI-7067-1101C8-Ab2_H12L1 (antibody, V domains shown, VH on human IgG1 constant, VL on human kappa constant) VH: EVQLVESGGGLVQPGGSLKLSCAASGFTFNIYAMNWVRQAPGKGLEWVGRIRSKSNAYATYYAASVKGRFTISRDDSKNTAYLQMNNLKTEDTAVYYCTRVGLRFYALDYWGQGTLVTVSS VL: DVVMTQSPLSLPVTLGQPASISCRSSQSIVHSNANTYLEWYQQRPGQSPRLLIYKVSNRFSGVPDRFSGSGSGTDFTLKISRVEAEDLGVYYCFQGSQGPLTFGQGTKLEIK				0.0644 µM	0.2	1				
hACI-7067-1101C8-Ab2_H10L1 (antibody, V domains shown, VH on human IgG1 constant, VL on human kappa constant) VH: EVQLVESGGGLVQPGGSLKLSCAASGFTFNIYAMNWVRQAPGKGLEWVGRIRSKSNAYATYYAASVKGRFTISRDDSKNTLYLQMNNLKTEDTAVYYCTRVGLRFYALDYWGQGTLVTVSS VL: DVVMTQSPLSLPVTLGQPASISCRSSQSIVHSNANTYLEWYQQRPGQSPRLLIYKVSNRFSGVPDRFSGSGSGTDFTLKISRVEAEDLGVYYCFQGSQGPLTFGQGTKLEIK			11500 M⁻¹ s⁻¹	0.0482 µM	0.2	1.7				
hACI-7067-1101C8-Ab2_H9L1 (antibody, V domains shown, VH on human IgG1 constant, VL on human kappa constant) VH: EVQLVESGGGLVQPGGSLKLSCAASGFTFNIYAMNWVRQAPGKGLEWVGRIRSKSNAYATYYAASVKGRFTISRDDSKNTLYLQMNNLKTEDTAVYYCTRVGLRFYAMDYWGQGTLVTVSS VL: DVVMTQSPLSLPVTLGQPASISCRSSQSIVHSNANTYLEWYQQRPGQSPRLLIYKVSNRFSGVPDRFSGSGSGTDFTLKISRVEAEDLGVYYCFQGSQGPLTFGQGTKLEIK	0.0009 µM	2.25e-05 s⁻¹	23900 M⁻¹ s⁻¹	0.0182 µM	1.3	5.5				
hACI-7067-1101C8-Ab2_H11L2 (antibody, V domains shown, VH on human IgG1 constant, VL on human kappa constant) VH: EVQLVESGGGLVQPGGSLKLSCAASGFTFNIYAMNWVRQAPGKGLEWVGRIRSKSNAYATYYAASVKGRFTISRDDSKNTAYLQMNNLKTEDTAVYYCTRVGLRFYAMDYWGQGTLVTVSS VL: DVVMTQSPLSLPVTLGQPASISCRSSQSLVHSNANTYLEWYQQRPGQSPRLLIYKVSNRFSGVPDRFSGSGSGTDFTLKISRVEAEDLGVYYCFQGSQGPLTFGQGTKLEIK				0.0801 µM	0.8	5.4				
hACI-7067-1101C8-Ab2_H8L1 (antibody, V domains shown, VH on human IgG1 constant, VL on human kappa constant) VH: EVQLVESGGGLVQPGGSLKLSCAASGFSFNIYAMNWVRQAPGKGLEWVGRIRSKSNAYATYYAASVKGRFTISRDDSKNTLYLQMNNLKTEDTAVYYCTRVGLRFYALDYWGQGTLVTVSS VL: DVVMTQSPLSLPVTLGQPASISCRSSQSIVHSNANTYLEWYQQRPGQSPRLLIYKVSNRFSGVPDRFSGSGSGTDFTLKISRVEAEDLGVYYCFQGSQGPLTFGQGTKLEIK	0.002 µM	3.6e-05 s⁻¹	17600 M⁻¹ s⁻¹	0.04 µM	0.2	1.1				
hACI-7067-1101C8-Ab2_H11L1 (antibody, V domains shown, VH on human IgG1 constant, VL on human kappa constant) VH: EVQLVESGGGLVQPGGSLKLSCAASGFTFNIYAMNWVRQAPGKGLEWVGRIRSKSNAYATYYAASVKGRFTISRDDSKNTAYLQMNNLKTEDTAVYYCTRVGLRFYAMDYWGQGTLVTVSS VL: DVVMTQSPLSLPVTLGQPASISCRSSQSIVHSNANTYLEWYQQRPGQSPRLLIYKVSNRFSGVPDRFSGSGSGTDFTLKISRVEAEDLGVYYCFQGSQGPLTFGQGTKLEIK				0.048 µM	0.8	62				
hACI-7067-1101C8-Ab2_H9L2 (antibody, V domains shown, VH on human IgG1 constant, VL on human kappa constant) VH: EVQLVESGGGLVQPGGSLKLSCAASGFTFNIYAMNWVRQAPGKGLEWVGRIRSKSNAYATYYAASVKGRFTISRDDSKNTLYLQMNNLKTEDTAVYYCTRVGLRFYAMDYWGQGTLVTVSS VL: DVVMTQSPLSLPVTLGQPASISCRSSQSLVHSNANTYLEWYQQRPGQSPRLLIYKVSNRFSGVPDRFSGSGSGTDFTLKISRVEAEDLGVYYCFQGSQGPLTFGQGTKLEIK				0.0669 µM	0.8	2.3				
hACI-7067-1101C8-Ab2_H12L2 (antibody, V domains shown, VH on human IgG1 constant, VL on human kappa constant) VH: EVQLVESGGGLVQPGGSLKLSCAASGFTFNIYAMNWVRQAPGKGLEWVGRIRSKSNAYATYYAASVKGRFTISRDDSKNTAYLQMNNLKTEDTAVYYCTRVGLRFYALDYWGQGTLVTVSS VL: DVVMTQSPLSLPVTLGQPASISCRSSQSLVHSNANTYLEWYQQRPGQSPRLLIYKVSNRFSGVPDRFSGSGSGTDFTLKISRVEAEDLGVYYCFQGSQGPLTFGQGTKLEIK	0.0137 µM	0.000142 s⁻¹	10400 M⁻¹ s⁻¹	0.0287 µM	0.1	0.3				
hACI-7067-1101C8-Ab2_H6L1 (antibody, V domains shown, VH on human IgG1 constant, VL on human kappa constant) VH: EVQLVESGGGLVQPGGSLKLSCAASGFSFNIYAMNWVRQAPGKGLEWVARIRSKSNAYATYYAASVKGRFTISRDDSKNTLYLQMNNLKTEDTAVYYCVRVGLRFYASDYWGQGTLVTVSS VL: DVVMTQSPLSLPVTLGQPASISCRSSQSIVHSNANTYLEWYQQRPGQSPRLLIYKVSNRFSGVPDRFSGSGSGTDFTLKISRVEAEDLGVYYCFQGSQGPLTFGQGTKLEIK					0.3	1				
hACI-7067-1101C8-Ab2_H10L2 (antibody, V domains shown, VH on human IgG1 constant, VL on human kappa constant) VH: EVQLVESGGGLVQPGGSLKLSCAASGFTFNIYAMNWVRQAPGKGLEWVGRIRSKSNAYATYYAASVKGRFTISRDDSKNTLYLQMNNLKTEDTAVYYCTRVGLRFYALDYWGQGTLVTVSS VL: DVVMTQSPLSLPVTLGQPASISCRSSQSLVHSNANTYLEWYQQRPGQSPRLLIYKVSNRFSGVPDRFSGSGSGTDFTLKISRVEAEDLGVYYCFQGSQGPLTFGQGTKLEIK				0.0351 µM	0.2	0.8				
ACI-8033-1F8-Ab1 (antibody, V domains shown, mouse hybridoma mAb; also called 917.1F8D8E4) VH: DVQLQESGPGLVKPSQSLSLTCSVTGYSITSGFYWNWIRQFPGNKLEWMGYISYDGSNNYNPSLKNRISIIRDTSKNQFFLKLKSVTSEDTATYYCVRGDVDWGQGTTLTVSS VL: not shown							no binding (tested: supernatant 1/100)	no binding (tested: supernatant 1/100)	no binding (tested: supernatant 1/100)	
ACI-8033-25A3-Ab1 (antibody, V domains shown, mouse hybridoma mAb; also called 917.25A3E9F6) VH: EVQLVESGGGLVQPKGSLKLSCAASGFSFNTYAMNWVRQAPGKGLEWVARIRSKSNNFATYYADSVKDRFTISRDESESMLYLQMNNLKTEDTAMYYCVRSFDYWGQGTTLTVSS VL: DIKMTQSPSSMYASLGERVTITCKASQDINSYLSWFQQKPGKSPKTLIYRAKRLVDGVPSRFSGSGSGQDYSLTISSLEYEDMGIYYCLQYDEFPFTFGSGTKLEIK							no binding (tested: supernatant 1/100)	no binding (tested: supernatant 1/100)	no binding (tested: supernatant 1/100)	no binding (tested: supernatant 1/100)

— patent US20220298231A1 (AC IMMUNE, published 2022)
